Patent publication US20250355001A1, “METHOD FOR DETECTING A TAU PROTEIN FRAGMENT IN A SAMPLE” (GTINVENT LIMITED, priority 2022, published 2025)

B1: E2E8: dGAE (391E) specific clone, Table 9; SEQ ID NO: 248 (protein)
scFv: QVQLQESGPSLVKPSQTLSLTCTVSGFSLTDRGVAWVRQAPGKALEWVGTMRSGGTIDYNPALKSRLSITRDTSKSQVFLSLSSVTTEDMAMYYCARGYLSGDRYAWGRGLLVTVSSEGKSSGASGESKVDDQAVLTQPSSVSKSLGQSVSIACSGSRSDIGYGNYVSWFQQIPGSAPKLLIYDTNTRASGVPDRFSGARSGNTATLTINSLQAEDEADYYCANIDSSRSHLFGSGTRLTVLG
modifications: E2E8 amino acid sequence
B2: E1E8: dGAE (391E) specific clone, Table 9; SEQ ID NO: 250 (protein)
scFv: QVQLQESGPSLVKPSQTLSLTCTVSGFSLTDWGVAWVRQAPGKALEWLGTMRSGGTTDDNPALKSRLSITRDTSKSQVSLSLSSVTTEDMAMYYCARGYLSGVHYAWGRGLLVTVSSEGKSSGASGESKVDDQAVLTQPSSVSGSLGQSVSITCSGSSSNVGDGRYVSWFQQVPGSAPKLLIYDTTSRASGVPDRFSGSRSGNTATLIITSLQAEDEADYYCASIDSGNNLLFGSGTRLTVLG
modifications: E1E8 amino acid sequence
B3: S1D12 mAb: S1D12 reformatted; heavy chain SEQ ID NO: 445, light chain 446 (antibody)
heavy: QVQLQESGPSLVKPSQTLSLTCTVSGFSLNNNAVGWVRQAPGKVPESLVGCSSDGTCYYNSALKSRLDITRDTSKNQISLSLSSVTTDDAAVYYCTRGHYSIYGYDYLGTIDYWGPGLLVTVSSAKTTAPSVYPLAPVCGDTTGSSVTLGCLVKGYFPEPVTLTWNSGSLSSGVHTFPAVLQSDLYTLSSSVTVTSSTWPSQSITCNVAHPASSTKVDKKIEPRGPTIKPCPPCKCPAPNLLGGPSVFIFPPKIKDVLMISLSPIVTCVVVDVSEDDPDVQISWFVNNVEVHTAQTQTHREDYNSTLRVVSALPIQHQDWMSGKEFKCKVNNKDLPAPIERTISKPKGSVRAPQVYVLPPPEEEMTKKQVTLTCMVTDFMPEDIYVEWTNNGKTELNYKNTEPVLDSDGSYFMYSKLRVEKKNWVERNSYSCSVVHEGLHNHHTTKSFSRTPGK
light: QAVLTQPSSVSGSLGQRVSITCSGSSSNVGGGNSVGWYQHLPGSGLKTIIYDTNSRPSGVPDRFSGSRSGNTATLTINSLQAEDEGDYYCVTGDSTTHDDLVGSGTRLTVLGGQPKSSPSVTLFPPSSEELETNKATLVCTITDFYPGVVTVDWKVDGTPVTQGMETTQPSKQSNNKYMASSYLTLTARAWERHSSYSCQVTHEGHTVEKSLSRADCS
modifications: S1D12 mAB Heavy Chain; S1D12 mAB Light Chain

Columns and labels:
[1] = target: T1, hT40 (T441, SEQ ID NO: 1) (Homo sapiens, UniProt P10636); assay: Biacore X100 SPR kinetics of scAbs for hT40; type: binding; conditions: scAb format
T1 construct: Full length tau (hT40)
T1 sequence (P10636 1-441 isoform P10636-8): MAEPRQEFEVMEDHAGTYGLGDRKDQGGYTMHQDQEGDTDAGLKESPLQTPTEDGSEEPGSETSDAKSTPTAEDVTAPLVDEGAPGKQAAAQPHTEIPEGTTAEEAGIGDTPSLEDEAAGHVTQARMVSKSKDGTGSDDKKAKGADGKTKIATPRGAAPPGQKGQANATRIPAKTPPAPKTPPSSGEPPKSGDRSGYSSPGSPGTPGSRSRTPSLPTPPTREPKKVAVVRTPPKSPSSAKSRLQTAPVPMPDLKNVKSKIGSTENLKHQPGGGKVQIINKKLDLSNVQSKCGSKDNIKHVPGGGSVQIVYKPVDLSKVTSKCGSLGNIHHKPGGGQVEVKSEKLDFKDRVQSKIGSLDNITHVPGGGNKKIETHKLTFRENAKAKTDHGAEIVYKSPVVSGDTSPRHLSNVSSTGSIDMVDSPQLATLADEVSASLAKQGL
Outline: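 Captured scAb on anti-HuCk CM5 surface (flow cell 1 as reference) in HBS-EP+, capture set for theoretical RMax 100 RU; hT40 injected multi-cycle (0.15625–100 nM) or single-cycle (6.25–100 nM), 120 s association, 420 s dissociation, glycine pH 2.0 regeneration. Kinetics and affinity from 1:1 binding model fit.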

[2] = tested on: hT40, dGA, dGAE and truncated tau fragments; assay: Binding ELISA / epitope mapping of anti-tau scAbs with truncated tau proteins and 13mer peptides; parameters: species or system human; conditions: for cross-reactivity using hT40, dGA and dGAE antigens: ELISA, 'E' group scAbs; for Tau proteins/fragments with positive scAb reactivity: Table 15, binding ELISA, residue numbers of hT40
Outline: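 Serially double-diluted scAbs were applied to 2% MPBS-blocked wells carrying either 1 μg/ml full-length or truncated tau, or biotinylated 13mer peptides (1 μg/ml) captured on 5 μg/ml streptavidin. Absorbance after HRP anti-human C kappa secondary gave the binding signal.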

[3] = tested on: 13 aa tau peptides of hT40; assay: Alanine scanning mutagenesis (ASM) peptide ELISA; type: binding, human; conditions: alanine substituted peptides; numbering SEQ ID NO: 1
Protocol: Briefly, 5 μg/ml streptavidin (Thermo Fisher) was adsorbed to Nunc 96-well MaxiSorp plates and following incubation at 37° C. for 1 h, the plates were washed as normal and blocked with 2% MPBS. N-terminally biotinylated peptides (Prolmmune Ltd) were added to the plates and incubated for 1 h at 37° C. Subsequently, test scAbs at starting concentrations of 100-500 nM was added and double diluted across the plate for each peptide and incubated for 1 h at 37° C. Rest of the ELISA was conducted as described above and the plates were read at absorbance 450 nm. Immunoreactivity of the scAb of interest was quantified as the % of scAb was bound for each peptide at a chosen concentration (FIG. 15-20).

dGAE (SEQ ID NO: 4) = dGAE (SEQ ID NO: 4) (Homo sapiens, UniProt P10636); assay: Biacore X100 SPR kinetics of scAbs for dGAE; type: binding; conditions: Table 24, scAb, dGAE analyte; for Kd: dissociation rate
dGAE (SEQ ID NO: 4), sequence (P10636 614-708): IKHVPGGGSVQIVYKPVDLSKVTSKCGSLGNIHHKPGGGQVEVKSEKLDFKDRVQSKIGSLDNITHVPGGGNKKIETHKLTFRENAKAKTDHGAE
Protocol: Surface plasmon resonance (SPR) is widely regarded as the gold standard for real time measurement of protein-protein interactions such as antibody binding. All SPR experiments were carried out using a Biacore X100 machine and HBS EP+ running buffer (GE Healthcare). A ‘capture’ method was followed for affinity measurements, where an anti-human constant kappa chain (HuCk) antibody was conjugated to the surface of a CM5 sensor chip using an amine coupling kit and scAb molecules were immobilised via their HuCk domain. Amine coupling is a very common approach for immobilising the ligand to the chip surface. The chip surface has a dextran matrix derivatised with carboxyl groups, which after activation with N-hydroxysuccinimide (NHS) and 1-ethyl-3-(3-dimethylaminopropyl) carbodiimide (EDC), form reactive succinimide esters which allows the covalent capturing of the ligand via any available primary amine groups (e.g. Lysine) on the ligand (in this case anti-HuCk antibody). The capture antibody was diluted 1/100 in 10 mM Sodium acetate buffer pH 5.0 and passed over the activated chip surface for a period of at least 420 s. Final ligand immobilisation levels over 12,000 RU were deemed to be satisfactory.
Following immobilisation, the level of each scAb to be captured was identified using the standard SPR equation with a theoretical RMax of 100 RU. Analyte MW refers to the molecular weight of hT40 or dGA/dGAE molecules, while ligand MW refers to the molecular weight of the scAbs tested. RL is the desired capture level and S refers to the stoichiometric ratio:
The scAb to be tested was added only to flow cell 2 so that flow cell 1 could act as a control to subtract any interaction with the analyte and the chip surface. Both single and multi-cycle runs were utilised using wizards developed in the Biacore X100 control software which are both accepted methods of kinetic analysis (Karlsson, R., et al. Analyzing a kinetic titration series using affinity biosensors (2006) Analytical Biochemistry 349:136-47). The multi-cycle protocol was as follows-Three start-up cycles composed of an initial capture, to the desired level, of the scAb to be tested was performed followed by a 30 s injection of glycine buffer pH 2.0 after each cycle to regenerate the chip surface. The regeneration step removed any captured scAb whilst leaving the capture antibody intact and able to repeat the capture for the next cycle. […]
The single cycle kinetics protocol was similar and utilised the same level of scAb capture. […] Binding responses were analysed in Biacore X100 evaluation software and data fitted to a 1:1 binding model to obtain kinetic and affinity characterisation.

[4] = tested on: core tau in plasma of wildtype, Line 1 and Line 66 mice; assay: S1D12 mAb 6-week repeat-dose mouse study; plasma tau by CA4-S1G2 Simoa; type: in vivo; conditions: for plasma tau (CA4-S1G2 Simoa): 30 mg/kg i.p. once per week, six weeks
Protocol: A total of 12 wildtype, 12 Line 1 and 12 Line 66 female mice were used in this study-Line 1 and Line 66 are transgenic mouse models of tauopathy ( Melis et al., 2015). Animals were 2 months old at the beginning of the study. Mice of each genotype were injected intraperitoneally (i.p.) with either vehicle or S1D12 mAb (30 mg/kg), once per week, for six consecutive weeks.
Seven days post final dose, cardiac puncture blood sampling was performed. mice were anaesthetised using an overdose of sodium pentobarbital (i.p.) and blood was collected via cardiac puncture through a Plastipak syringe pre-rinsed with heparinised saline (10 U/mL) and transferred into a plastic vial containing lithium heparin anticoagulant. Blood samples were centrifuged to obtain plasma at 2,000×g for 5 min at 6° C.
A three-step assay was performed and analysed by following the previously described plasma screening methods using CA4 antibody capture beads, S1G2 detector (10 ng/ml) and the plasma samples added in 1:8 dilution.

dGAE aggregates = dGAE aggregates (Homo sapiens, UniProt P10636); assay: Sandwich ELISA on SDS/Triton X-100 treated dGAE aggregates; type: binding; conditions: S1D12 mAb capture, S1G2 scAb detection; SDS + Triton X-100
dGAE aggregates, sequence (P10636 614-708): as above
Protocol: We have noticed Sodium dodecyl sulphate (SDS) can break apart dGA/dGAE aggregates and separate them into smaller fragments by performing an SDS-PAGE. This has been replicated and tested using an ELISA as described below.
For aggregation, 1000 μL 100 μM dGAE+10 μL 10 mM DTT was added to a ‘LoBind’ microfuge tubes and agitated at 700 RPM/37° C. for 24 hours. Resulting sample centrifuged at 17,000×g/4° C. for 60 min and supernatant discarded to remove left over monomer. Pellet resuspended in half the original volume for future experiments and hereafter referred to as ‘aggregates’. 1 μl of aggregates was added to 1 ml of PBS and SDS was added to a final concentration of 1% (w/v). This was left to incubate on lab bench for 1 h with gentle agitation every 15 minutes. In order to neutralize the SDS effect on ELISA, Triton X-100 added to a final concentration of 3% (v/v) and mixed gently by pipetting to prevent any bubble formation. 200 μl added of this mix was to the first well of an ELISA plate coated with 1 μg/ml S1D12 mAb and blocked with 2% MPBS. Similarly aggregates treated with only SDS or Triton X-100, untreated aggregates, dGAE monomers treated with only SDS or SDS+Titon X-100 were also added to designated wells as controls. All samples were then double diluted across the plate in final volumes of 100 μl. The final column was left with no protein to act as a blank. This was allowed to stand at room temperature for 1 hour followed by the addition of detection scAb-S1G2 at 10 μg/ml. Anti-HuCk HRP labelled secondary antibody was added as described previously and ELISA data generated was represented using the graph below.

| Molecule | T441 binding in SPR (result in words) ([1]; Table 23) | hT40 binding (result in words) ([1]; Table 26 summary) | cross-reactivity using hT40, dGA and dGAE antigens [2] | Tau proteins/fragments with positive scAb reactivity [2] | Epitope ([2]; Table 26 summary, top scAbs, residues of hT40) | Detection scAb (Epitope) ([2]; Table 28 (LoD table), residues of hT40) | critical binding residues [3] | ka (dGAE (SEQ ID NO: 4)) [M⁻¹ s⁻¹] | Kd (dGAE (SEQ ID NO: 4)) [s⁻¹] | increase of core tau in plasma vs vehicle ([4]; L1 mice) | plasma tau (CA4-S1G2 Simoa) ([4]; L1 mice) [ng/mL] | plasma tau (CA4-S1G2 Simoa) ([4]; L66+/+ mice, mean (SEM)) | increase of core tau in plasma vs vehicle ([4]; L66 mice) | increase of core tau in plasma vs vehicle ([4]; wild-type mice) | plasma tau (CA4-S1G2 Simoa) ([4]; wildtype mice, mean (SEM)) | dGAE aggregates detectable (dGAE aggregates) |
| --- | --- | --- | --- | --- | --- | --- | --- | --- | --- | --- | --- | --- | --- | --- | --- | --- |
| B1 | No T441 binding | No hT40 binding | specific dGAE binding | 297-391 (dGAE) | 391 | E2E8 (E dependant) | 391 (E) | 477000 | 0.0001915 |  |  |  |  |  |  |  |
| B2 |  |  | specific dGAE binding | 297-391 (dGAE) |  |  |  | 153500 | 0.0014 |  |  |  |  |  |  |  |
| B3 |  |  |  |  |  |  |  |  |  | more than 100 fold | > 100 | 3.52 (0.20) ng/ml | more than a threefold increase | less than a two-fold increase | 3.57 (0.22) ng/ml | approximately 2 ng/ml |
